Test results reported in publication PMC4534181.

Biological target: wild-type α1-antitrypsin (recombinant) (human) (UniProt P01009)
Assay: native MS; 15 μM α1-antitrypsin incubated with TTAI at peptide:protein molar ratios 0.1:1 to 5:1 for 3 days at 37.5°C in phosphate buffer pH 7.4; exchanged into 200 mM ammonium acetate pH 8; nanoelectrospray, Synapt

Sequence of UniProt P01009 (P01009 25-418): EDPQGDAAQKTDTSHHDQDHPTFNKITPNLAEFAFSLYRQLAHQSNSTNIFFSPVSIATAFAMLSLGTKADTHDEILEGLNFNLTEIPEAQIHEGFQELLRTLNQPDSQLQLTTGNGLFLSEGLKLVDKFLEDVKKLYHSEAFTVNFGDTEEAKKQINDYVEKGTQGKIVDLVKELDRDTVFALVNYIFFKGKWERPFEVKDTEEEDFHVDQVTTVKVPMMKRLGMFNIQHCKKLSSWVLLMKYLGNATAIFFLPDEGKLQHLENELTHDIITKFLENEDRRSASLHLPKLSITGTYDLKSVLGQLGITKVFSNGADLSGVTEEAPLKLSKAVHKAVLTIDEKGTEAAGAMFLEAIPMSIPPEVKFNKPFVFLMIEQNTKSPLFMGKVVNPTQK

B1: reactive loop analogue tetrapeptide Thr-Thr-Ala-Ile (TTAI) (peptide)
peptide: Ac-TTAI-NH2
  stoichiometry N: 2 copies
